Experimental data as given in patent publication US20230220399.
Where two headings read alike, the source gives them in different places.

Key:
[1] = biological target: human serum albumin (HSA) (Homo sapiens) (UniProt P02768); details: ELISA, SB18, 37 C
[2] = tested on: KRAS G12D G12D, P01116-2; details: ELISA, SB18, 37 C
[3] = biological target: PD-L1 (B7-H1) (Homo sapiens) (UniProt Q9NZQ7); details: ELISA, SB18, 37 C
[4] = biological target: CD3 delta/epsilon heterodimer (UniProt P04234+P07766); details: ELISA, SB18, 37 C
Chain of CD3 delta/epsilon heterodimer (P04234 22-105, stated change not applied, chain 1 of 2): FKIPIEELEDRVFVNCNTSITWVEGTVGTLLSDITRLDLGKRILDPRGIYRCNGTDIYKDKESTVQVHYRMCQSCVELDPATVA
Chain of CD3 delta/epsilon heterodimer (P07766 23-126, stated change not applied, chain 2 of 2): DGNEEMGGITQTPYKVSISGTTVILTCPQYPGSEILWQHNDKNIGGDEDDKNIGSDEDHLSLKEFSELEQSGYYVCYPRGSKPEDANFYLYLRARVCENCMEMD

[5] = biological target: 4-1BB (TNFRSF9) (Homo sapiens) (UniProt Q07011); details: ELISA
Chain of 4-1BB (TNFRSF9) (Homo sapiens) (Q07011 24-186): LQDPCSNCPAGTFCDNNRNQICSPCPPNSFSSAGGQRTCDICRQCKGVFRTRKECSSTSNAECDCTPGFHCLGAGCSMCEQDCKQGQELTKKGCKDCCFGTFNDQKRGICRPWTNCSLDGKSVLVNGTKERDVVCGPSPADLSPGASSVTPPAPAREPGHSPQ

[6] = Nap-dU at n (6) positions [8,10-11,13,18-19,24,26,29,36,39]
[7] = Nap-dU at n (6) positions [5,11,13,19,21,23,28,36,38,42,43,44,45]
[8] = Nap-dU at n (6) positions [Nap-dU at 21,28,30,33,36,37,40,49]
[9] = Nap-dU at n (6) positions [9,14,18,24,31,32,33,35,44]
[10] = Nap-dU at n (6) positions [Nap-dU at 5,6,7,8,11,17,18,19,22]
[11] = Nap-dU at n (6) positions [1,6,7,8,14,16,18,20], SB18, 37 C
[12] = Nap-dU at n (6) positions [1,6,7,8,14,16,18,20]
[13] = Nap-dU at n (6) positions [18,20,22,32,33,34,35,36,44,45,47,53,57 (Nap-dU)]
[14] = Nap-dU at n (6) positions [Nap-dU at 1,6,7,8,9,12,18,19,20,23]
[15] = Nap-dU at n (6) positions [1,7,9,15,17,19,24,32,34,38,39,40,41,48,50]
[16] = Nap-dU at n (6) positions [8,10-11,13,18-19,24,26,29]
[17] = Nap-dU at n (6) positions [5,11,13,19,21,23,28,36,38]
[18] = Nap-dU at n (6) positions [Nap-dU at 29,36,38,41,44,45,48,57]
[19] = Nap-dU at n (6) positions [Nap-dU at 24,31,33,36,39,40,43,52]
[20] = Nap-dU at n (6) positions [5,11,13,19,21,23,28,36,38,42-44]
[21] = Nap-dU at n (6) positions [5,11,13,19,21,23,28,36,37,39,44,45,50,52,54]
[22] = Nap-dU at n (6) positions [4,8,14,21-23,25]
[23] = Nap-dU at n (6) positions [3,5-6,8,13-14,19,21,24]
[24] = Nap-dU at n (6) positions [18,20,26,27,29,31,35,36,42,45,53,54,55,56]
[25] = Nap-dU at n (6) positions [4,9,13,19,26,27,28,30]
[26] = Nap-dU at n (6) positions [5,7,9,14,22,24,28,29,30,31,38,40]
[27] = Nap-dU at n (6) positions [2,4,9,17,19,23,24,25,26,33,35]
[28] = Nap-dU at n (6) positions [16,25,27-28,30,35-36,41,43,46,53,56]
[29] = Nap-dU at n (6) positions [Nap-dU at 18,22,26,34,36,39,42,43,46,52,57]
[30] = Nap-dU at n (6) positions [12,21,26,30,36,43,44,45,47,56]
[31] = Nap-dU at n (6) positions [2,4,10,12,14,19,27,29,33,34,35,36,43,45]
[32] = Nap-dU at n (6) positions [13,15-16,18,23-24,29,31,34,41,44]
[33] = Nap-dU at n (6) positions [Nap-dU at 16,20,23,28,29,30,31,34,40,41,42,45,54]
[34] = Nap-dU at n (6) positions [Nap-dU at 3,6,11,12,13,14,17,23,24,25,28,37]
[35] = Nap-dU at n (6) positions [4,8,14,21,22,23,25]
[36] = Nap-dU at n (6) positions [5,11,13,19,21,23,28,36,38,42-45,52,54]
[37] = Nap-dU at n (6) positions [5,11,13,19,21,23,28]
[38] = Nap-dU at n (6) positions [Nap-dU at 4,17,24,26,29,32,33,36,45]

Chain of PD-L1 (B7-H1) (Homo sapiens) (Q9NZQ7 19-238): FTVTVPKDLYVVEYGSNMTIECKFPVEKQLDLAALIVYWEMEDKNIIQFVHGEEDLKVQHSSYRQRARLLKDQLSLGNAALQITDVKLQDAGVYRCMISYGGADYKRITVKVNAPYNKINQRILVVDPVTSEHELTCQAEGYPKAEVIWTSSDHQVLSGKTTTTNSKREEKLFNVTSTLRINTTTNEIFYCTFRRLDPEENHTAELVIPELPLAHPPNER

CCCCGCCTCTTCTGAAGTTAACATGTGCTCCGAGATGGTA [AD011]
Kd [1, 6]: 5.46 nM
Kd [2, 6]: 9.46 nM

CAGGTCGAGCTGTACGCGTGTGTGACCTGAAGACGTATAACTTTTACAG [AD046]
Kd [1, 7]: 0.65 nM
Kd [2, 7]: 5.38 nM

GTCTGCCTGACAACAACGAGTGCGAACTGTACTACTTGATAGAGACCCTC [AP024]
Kd [3, 8]: 33.3 nM
Kd [1, 8]: 22.3 nM

GCCTGGACTAGCATAAGTCCGGATGGCAGCTTTATGCCGACCATCAGCC [AD004]
Kd [1, 9]: 190 nM
Kd [2, 9]: 16.6 nM

GCCCTTTTAATCCGACTTTAAT [AA007]
Kd [4, 10]: 15.1 nM
Kd [1, 10]: 2.03 nM

TCGCCTTTACAACTATATCTGACGAAC [AB006]
Kd [5, 11]: 0.44 nM
Kd [1, 12]: 278 nM

GCCTGTCTCCAACCTCGCCTTTACAACTATATCTGACGAACTAACACAGCC [AB002]
Kd ([5]; Nap-dU at n (6) positions [6,8,15,20,21,22,28,30,32,34,42], SB18, 37 C): 0.48 nM
Kd ([1]; Nap-dU at n (6) positions [6,8,15,20,21,22,28,30,32,34,42]): 2.92 nM

GAGTGACCGTCTGCCTGTGTCTGAGGGACCCTTTTTAAGGGCATTATCAGCATGCCTCACACAGCCACACCACCAGCC [AD002]
Kd [1, 13]: 1.3 nM
Kd [2, 13]: 0.55 nM

TGCCCTTTTAATCCGACTTTAATGGCCACG [AA005]
Kd [4, 14]: 39.4 nM
Kd [1, 14]: 8.27 nM

TCGAGCTGTACGCGTGTGTGACCTGAAGACGTATAACTTTTACAGAATCTACA [AD053]
Kd [1, 15]: 1.37 nM
Kd [2, 15]: 1.03 nM

CCCCGCCTCTTCTGAAGTTAACATGTGCTCCGAGA [AD012]
Kd [1, 16]: 28.7 nM
Kd [2, 16]: 23.1 nM

GTCTGCCTGACAACAACGAGTGCGAACTGTACTACTTGATAGAGACCCTCAGCCACACCACCAGCC [AP022]
Kd [3, 8]: 66.6 nM
Kd [1, 8]: 16.6 nM

CAGGTCGAGCTGTACGCGTGTGTGACCTGAAGACGTATA [AD044]
Kd [1, 17]: 2.93 nM
Kd [2, 17]: 1580 nM

GAGTGACCGTCTGCCTGACAACAACGAGTGCGAACTGTACTACTTGATAGAGACCCTC [AP023]
Kd [3, 18]: 93.2 nM
Kd [1, 18]: 51.7 nM

GAGTGACCGTCTGCCTGTCTCCAACCTCGCCTTTACAACTATATCTGACGAACTAACACAGCCACACCACCAGCC [AB001]
Kd ([5]; Nap-dU at n (6) positions [Nap-dU at 16,18,20,27,32,33,34,40,42,44,46,54], SB18 buffer (5 mM MgCl2), 37 C): 0.04 nM
Kd ([1]; Nap-dU at n (6) positions [Nap-dU at 16,18,20,27,32,33,34,40,42,44,46,54]): 8.39 nM

ACCGTCTGCCTGACAACAACGAGTGCGAACTGTACTACTTGATAGAGACCCTCAGCCACACCACCAGCC [AP021]
Kd [3, 19]: 130 nM
Kd [1, 19]: 15.6 nM

CAGGTCGAGCTGTACGCGTGTGTGACCTGAAGACGTATAACTTT [AD045]
Kd [1, 20]: 0.73 nM
Kd [2, 20]: 20 nM

CAGGTCGAGCTGTACGCGTGTGTGACCTGCCCCACTTCTGACATTAGACTGTGTAGA [AD034]
Kd [1, 21]: 0.59 nM
Kd [2, 21]: 473 nM

GCATAAGTCCGGATGGCAGCTTTATGC [AD008]
Kd [1, 22]: 66.9 nM
Kd [2, 22]: 287 nM

TCTCCAACCTCGCCTTTACAACTATATCTGACGAACTAACA [AB003]
Kd ([5]; Nap-dU at n (6) positions [1,3,10,15,16,17,23,25,27,29,37], SB18, 37 C): 0.87 nM
Kd ([1]; Nap-dU at n (6) positions [1,3,10,15,16,17,23,25,27,29,37]): 19.8 nM

CCTCTTCTGAAGTTAACATGTGCTCC [AD015]
Kd [1, 23]: 36.8 nM

GAGTGACCGTCTGCCTGTGTGAGAATTATGTACCTTAACGATCATCCGAAGGTTTTGACCACAGCCACACCACCAGCC [AD001]
Kd [1, 24]: 8.4 nM
Kd [2, 24]: 8.12 nM

GACTAGCATAAGTCCGGATGGCAGCTTTATGCCG [AD006]
Kd [1, 25]: 939 nM
Kd [2, 25]: 77.6 nM

CGCGTGTGTGACCTGAAGACGTATAACTTTTACAGAATCTACA [AD051]
Kd [1, 26]: 5.95 nM
Kd [2, 26]: 514 nM

GTGTGACCTGAAGACGTATAACTTTTACAGAATCTACA [AD050]
Kd [1, 27]: 5.55 nM
Kd [2, 27]: 455 nM

GAGTGACCGTCTGCCTGCCCCGCCTCTTCTGAAGTTAACATGTGCTCCGAGATGGTACAGCCACACCACCAGCC [AD009]
Kd [1, 28]: 0.65 nM
Kd [2, 28]: 0.51 nM

GAGTGACCGTCTGCCTGTCAATCACTGACGAAATGTACTACTTGATAGAGCTAACCTCAGCCACACCACCAGCC [AP027]
Kd [3, 29]: 354 nM
Kd [1, 29]: 2.17 nM

CCCCGCCTCTTCTGAAGTTAACATGTGCTCC [AD014]
Kd [1, 16]: 28.8 nM
Kd [2, 16]: 1.95 nM

GAGTGACCGTCTGCCTGGACTAGCATAAGTCCGGATGGCAGCTTTATGCCGACCATCAGCCACACCACCAGCC [AD003]
Kd [1, 30]: 13 nM
Kd [2, 30]: 13.8 nM

CTGTACGCGTGTGTGACCTGAAGACGTATAACTTTTACAGAATCTACA [AD052]
Kd [1, 31]: 3.06 nM
Kd [2, 31]: 4.93 nM

CCTCTTCTGAAGTTAACATGTGCTCCGAGA [AD013]
Kd [1, 23]: 47 nM
Kd [2, 23]: 3.99 nM

GCCTGCCCCGCCTCTTCTGAAGTTAACATGTGCTCCGAGATGGTACAGCC [AD010]
Kd [1, 32]: 4.49 nM
Kd [2, 32]: 8.18 nM

GAGTGACCGTCTGCCTGGATCCTGCCCTTTTAATCCGACTTTAATGGCCACGCTCACCAGCCACACCACCAGCC [AA001]
Kd [4, 33]: 3.17 nM
Kd [1, 33]: 9.62 nM

GAGTGACCGTCTGCCTGACAACAACGAGTGCGAACTGTACTACTTGATAGAGACCCTCAGCCACACCACCAGCC [AP013]
Kd [3, 18]: 74 nM
Kd [1, 18]: 19.1 nM

AACCTCGCCTTTACAACTATATCTGACGAAC [AB005]
Kd ([5]; Nap-dU at n (6) positions [5,10,11,12,18,20,22,24], SB18, 37 C): 0.12 nM
Kd ([1]; Nap-dU at n (6) positions [5,10,11,12,18,20,22,24]): 53.5 nM

GAGTGACCGTCTGCCTGGATATGCCTCTTCTGCAGTTACGGTGTGATCGCCCAATAGCAGCCACACCACCAGCC [TD009]
Kd ([2]; Nap-dU at n (6) positions [Nap-dU at 20,22,26,28,29,31,36,37,42,44,47,55]): 2480 nM

TGCCCTTTTAATCCGACTTTAATGGC [AA006]
Kd [4, 14]: 14.3 nM
Kd [1, 14]: 15.5 nM

GATCCTGCCCTTTTAATCCGACTTTAATGGCCACGCTCAC [AA003]
Kd [4, 34]: 7.63 nM
Kd [1, 34]: 4.32 nM

GCATAAGTCCGGATGGCAGCTTTATGCCGACC [AD007]
Kd [1, 35]: 536 nM
Kd [2, 35]: 152 nM

CAGGTCGAGCTGTACGCGTGTGTGACCTGAAGACGTATAACTTTTACAGAATCTACA [AD032]
Kd [1, 36]: 0.68 nM
Kd [2, 36]: 15.5 nM

CAGGTCGAGCTGTACGCGTGTGTGACCTGAAGAC [AD043]
Kd [1, 37]: 4.18 nM
Kd [2, 37]: 263 nM

GCCTGACAACAACGAGTGCGAACTGTACTACTTGATAGAGACCCTCAGCC [AP001]
Kd [3, 38]: 42.7 nM
Kd [1, 38]: 20.9 nM

TCGCCTTTACAACTATATCTGACGA [AB007]
Kd [5, 11]: 0.49 nM
Kd [1, 12]: 186 nM

AACCTCGCCTTTACAACTATATCTGACGAACTAACA [AB004]
Kd ([5]; Nap-dU at n (6) positions [5,10,11,12,18,20,22,24,32], SB18, 37 C): 0.05 nM
Kd ([1]; Nap-dU at n (6) positions [5,10,11,12,18,20,22,24,32]): 102 nM
